# From the DeepSol protein solubility set
# Assay: soluble on expression in E. coli; label from the status in PepcDB or PDB records
row,Sequence,soluble on expression in E. coli
1,RTGFSVGAGVEYNFSRHWAIQSGLMITSKGATAEYEGYSPLSSSTDPISYKAKISPIYLDIPILAAFKIDISNHVKFAINIGPYLSVGMGGKYELTNTGGHKNESHNPFKSYSSTAEMKDKDALLKRFDIGVQGGIGFEIWKHYLINASFQHGFMDPIKGGTLYAGDTEKHYPIGGILTVGYRF,not soluble
2,MSLEALMNVQFFDHAHHKLKIRGLQSPVDVLTFEGREQLSTPFRYDIQFTSSDKAIAPESVLMQDGAFSLTAPPVQGMPVQTALRTLHGVITGFKHLSSSQDEARYEVRLEPRMALLTRSRQNAIYQNQTVPQIVEKILRERHQMRGQDFVFNLKSEYPAREQVMQYGEDDLTFVSRLLSEVGIWFRFATDARLKIEVIEFYDDQSGYERGLTLPLRHPSGLFDGETEAVWGLNTAYSVVEKSVSTRDYNYREATAEMTTGQHDATGGDNTTYGEAYHYADNFLQQGDKEAAESGAFYARIRHERYLNEQAILKGQSTSSLLMPGLEIKVQGDDAPAVFRKGVLITGVTTSAARDRSYELTFTAIPYSERYGYRPALIPRPVMAGTLPARVTSTVKNDIYAHIDKDGRYRVNLDFDRDTWKPGYESLWVRQSRPYAGDTYGLHLPLLAGTEVSIAFEEGNPDRPYIAGVKHDSAHTDHVTIQNYKRNVLRTPANNKIRLDDERGKEHIKVSTEYGGKSQLNLGHLVDAGKEQRGEGFELRTDLWGAVRAKKGIFISADAQDKAQGQVLEMQPALARLSAALVTMESLAASAQQAQALAADVSRQQTLLQQKIEQLQQEVLLGSAPKGVALVSGEDMQLSASDNLTLTAGKQLDIGVQKDFTLAAGKQLSLYSRAGAKLFSSHNDIDIQAQGGNLTTWSTQDTYISSGKKLVVTAQDELTLICGGGYIKIKSGNVEIGGPGKLLVKNAGIKKAGSGSMQGVMKSFEPESFDENFIISNPASGKPIANQKYEIHMPDGSVIAGITDAMGYSSLVASKASDDLKIILKKEGHHHHHH,soluble
3,MSLILLNTITDQVSVSETQTKSPRLWMPERVLFTPAALGEDWGQQILARVQSLNLPIEELSQNRLKGLRGESERDTYNIAKRTLAVVTAPPSSFKLSPIPPSADWQFHIAEGCPAHCQYCYLAGSLSGPPVIRVFANLPQILENLANYEQQGKTTTFEVSCYTDPLGIEHLTGSLAECIRYFGTRTNAHLRWVSKFDAVDGLLDLPHNGNTRCRMSVNAAPISGKFEGGTASVASRLNALRRLALPQERGGGGYPVGLVIAPIMPIDDWQMHYSRLFDQINEALDFDCNFTFELISHRFTPGSKEVLQAWYPQSKLEMDEAKRSVKRNKFGGTKYVYEKDTMKALRSFFESEISRRFPNAETLYWTEGHHHHHH,soluble
4,MSHLVYVSRVVAAPIERVWPHLRDFNGLSAWHPGVADSRLEEGGRDDAPGTVRFLSLNPSGYVRERLLMLDDAGRSLRYAIIETDLPMRDYVAGVDLCPVTEGGGTFAQWWADFDVVAGANRDEVARLVGEGVFAAGLQALDQYLRDRQG,soluble
5,ADQVDPQLKFAMQRDLGIFPTQLPQYLQTEKLARTQAAAIEREFGAQFAGSWIERNEDGSFKLVAATSGARKSSTLGGVEVRNVRYSLKQLQSAMEQLDAGANARVKGVSKPLDGVQSWYVDPRSNAVVVKVDDGATDAGVDFVALSGADSAQVRIESSPGKLQTT,soluble
6,MNQNLLVTKRDGSTERINLDKIHRVLDWAAEGLHNVSISQVELRSHIQFYDGIKTSDIHETIIKAAADLISRDAPDYQYLAARLAIFHLRKKAYGQFEPPALYDHVVKMVEMGKYDNHLLEDYTEEEFKQMDTFIDHDRDMTFSYAAVKQLEGKYLVQNRVTGEIYESAQFLYILVAACLFSNYPRETRLQYVKRFYDAVSTFKISLPTPIMSGVRTPTRQFSSCVLIECGDSLDSINATSSAIVKYVSQRAGIGINAGRIRALGSPIRGGEAFHTGCIPFYKHFQTAVKSCSQGGVRGGAATLFYPMWHLEVESLLVLKNNRGVEGNRVRHMDYGVQINKLMYTRLLKGEDITLFSPSDVPGLYDAFFADQEEFERLYTKYEKDDSIRKQRVKAVELFSLMMQERASTGRIYIQNVDHCNTHSPFDPAIAPVRQSNLCLEIALPTKPLNDVNDENGEIALCTLSAFNLGAINNLDELEELAILAVRALDALLDYQDYPIPAAKRGAMGRRTLGIGVINFAYYLAKHGKRYSDGSANNLTHKTFEAIQYYLLKASNELAKEQGACPWFNETTYAKGILPIDTYKKDLDTIANEPLHYDWEALRESIKTHGLRNSTLSALMPSETSSQISNATNGIEPPRGYVSIKASKDGILRQVVPDYEHLHDAYELLWEMPGNDGYLQLVGIMQKFIDQSISANTNYDPSRFPSGKVPMQQLLKDLLTAYKFGVKTLYFQNTRDGAEDAQDDLVPSIQDDGCESGACKI,soluble
7,GSHMQAEILLTLKLQQKLFADPRRISLLKHIALSGSISQGAKDAGISYKSAWDAINEMNQLSEHILVERATGGKGGGGAVLTRYGQRLIQLYDLLAQIQQKAFDVLSDDDALPLNSLLAAISRFSLQTSARNQWFGTITARDHDDVQQHVDVLLADGKTRLKVAITAQSGARLGLDEGKEVLILLKAPWVGITQDEAVAQNADNQLPGIISHIERGAEQCEVLMALPDGQTLCATVPVNEATSLQQGQNVTAYFNADSVIIATLC,soluble
8,MSLNSSFFKMMEKRSYNRFNQEQKAAITYDMKKHLRIIAGAGSGKTQTICAKAVYLMTQKQVDEERILMITFTRNAANELKKRVDNFSQRKTAVHIGTFHSIFFRIYNEICRKFPEVAMQGIQGDFSKDTAQKVNAVLQQLIRKYNLYIFDQYGEKTIASRLDYWQNMNLSVEEMVQLVKEKYDSIDKNARQPISERLYGLLTELQEQKRSQQLLEFNDVLQNLKSALENEEIQHYIGQKYDYLFIDEFQDTNPLQWEIVKRMTKENRIKLIVVGDDDQSIYGFRGSEPAYIKNFEKEYPTKTLFLLTNYRSRAAIVQGANRLISYNKNDRIPKAMIPAQKEAGVMEAYLFSDTKAESQWLIKQIQTFIQKNGKYKESIILYRSASQTQQLVQSLLKTNIPFVLEADSPYEGIFGIKSFQHFYQKIVHWQTALNLQKKNQAYQQLLRQLMADCYLKKSECDQYFSPKYQNIAVADYILSISPNLKSKSAEIREFEEALRKTDQHQEIYSLVQSYLHLPRIAKEIDQSDQEWIREEVKQHATFRRLQALSQETQATAKELKTREGHHHHHH,not soluble
9,MGLSATIMEAEPEGRKRPGSRAIYFHKATLIHLESIFPGLGYTLAKNGLVWPIKRTFFRGKEVFVKDYGPTDPNQLPPFTSLPQDRAEQFMFDACLQAGVEFVWKTPIRQVETSPAGATLTTKAGDVWSADYVIGADGARSSVRTTAGMKLEGPRTNDTFLVVDVKEDEESPLPLERVFHYEHPAMGGRNVMFVPFVGGWRVDLQLLEHDDPEEYSHPEGVRRWIQKVMPAKYGERVTWVSTYRFHQVVADSFTDQHGKVLLAGEAAHLFAPFGARGLNSGTPDAIKAAQGIHTALSARDDQAAKQAIFAAAHERRIAALWNRDCSSTALEHLQGLEHHHHHH,not soluble
10,MSLGEESRDPVAALRLIKHDQQANLYVLCDLHPFLGDSPTLVRLLKEIAMAEGNHRPTVVLVSHALKLPAEVQRFAARFSLSLPSEDELLGIVREEATRWSERNRGARVRTDNRTLQQVVKNLRGLSHAEARLLARNVICNDGAITQEDLPELNRTKFQLLDLEGVLSFEYDTARFAEVGGLAALKRWLGERQSAFLAGKPGDQPKGMMLVGVQGAGKSLAAKAVAGLWGLPLLRLDFACLYNKYFGETERNLREALRLAEQMAPCVLWMDEVEKGISGGDQDNGVSQRVLGTLLTWMAEREAPVFMVATANAIDRLPPELIRKGRFDELFFVDLPTPEVRAEIFRIHLQRRELEPAQFDLHLLAAASEGFSGAEIEQAVVAALYAGQARQQAVDQDLLLRELARTSPLSVLMAEKLAALRTWAKGRAVPADEGHHHHHH,not soluble
11,MVNKRTVTELSLFAGLIVSMHVAYYTIQNNPSLVAPHQRQELFYVRWLKEKIPALRPYGVTDDKTPKADQ,not soluble
12,RKPTALIILDGFGLREETYGNAVAQAKKPNFDGYWNKFPHTTLTACGEAVGLPEGQMGNSEVGHLNIGAGRIVYQSLTRVNVAIREGEFDKNETFQSAIKSVKEKGTALHLFGLLSDGGVHSHMNHMFALLRLAAKEGVEKVYIHAFLDGRDVGPKTAQSYIDATNEVIKETGVGQFATISGRYYSMDRDKRWDRVEKCYRAMVNGEGPTYKSAEECVEDSYANGIYDEFVLPSVIVNEDNTPVATINDDDAVIFYNFRPDRAIQIARVFTNGDFREFDRGEKVPHIPEFVCMTHFSETVDGYVAFKPMNLDNTLGEVVAQAGLKQLRIAETEKYPHVTFFFSGGREAEFPGEERILINSPKVATYDLKPEMSIYEVTDALVNEIENDKHDVIILNFANCDMVGHSGMMEPTIKAVEATDECLGKVVEAILAKDGVALITADHGNADEELTSEGEPMTAHTTNPVPFIVTKNDVELREDGILGDIAPTMLTLLGVEQPKEMTGKTIIK,soluble
13,MEKPSPTRRQTSSLSTISNGMTMTNDNRDTTNTNSGSTSSNNSQPSSSSTPPAASGPVTDRTKVNYVPKSDDPSSFQYYPDDPENPVNKYKFALKADSQYYDPCEESSKLSFQCLERNDYDRSKCQEYFDAYRECKKQWLTARRKNRQQWE,soluble
14,TSALAPVAAIIPPPPDVQPVIDKLAEYVARNGLKFETSVRAKNDQRFEFLQPWHQYNAYYEFKKQFFLQKEGGDSMQAVSAPE,soluble
15,KVITRGEATRLINKEDAVVVDLRQRDDFRKGHIAGAINLLPSDIKANNVGELEKHKSQPIIVVDGSGMQAQEPASALNKAGFEKVFVLKEGIAGWSGENLPLVRG,soluble
16,MGSDKIHHHHHHMSQDVPGNLLDEIRILRSPKGYLYAGLPKFRALFGRDSIISSIQLIDLFPDIAQNTVIYLKDLQGRKLDYSIGEYPGKILHEYYDDEKIFLDRKRSIPWLNSRINYFSVDSTPLFILLIKNLFLRNLIDIEQFKDSIMMAMQFLIAYSSSDGLITYDKALLGAGLMSQSWRDGVGDIMDRLKSPVATVGVQGYFYESADFVLNLFPDSLIEESLPDLKDFYSKMREILENKFWLEETGYYGLAVDGDGVIEQAATSDPGHLIGSGILTRSRERDVIDRLFESDLLTDYGIRTLSAKDPRFDPKAYQRGSIWPQDNWIIADGIKRRGYLKEYRELRERLIAAYEYYGRMPEYFGVDRYGKIMDLSKLRIKPCYPQAWSTGAIINFVTFK,not soluble
17,SHVETGPNGEQIRKHAGQKRTYKAISESYAFLPREAVTRFLMSCSECQKRMHLNPDGTDHKDNGKPPTLVTSMIDYNMPITMAYMKHMKLQLLNSQQDEDESSIESDEFDMSDSTRMSAVNSDLSSNLEERMQSPQNLHGQQDDDSAAESFNGNETLGHSSIASGGTHSREMGDSNSDGKTGLEQDEQPLNLSDSPLSAQLTSEYRIDDHNSNGKNKYKNLLISDLKMEREARENGSKSPAHSYSSYDSGKNESVDRGAEDLSLNRGDEDEDDHEDHDDSEKVNETDGVEAERLKAFNDESAPADKQCKPEATQATYSTSAVPGSQDVLYINGNGTYSYHSYRGLGGGLLNLNDASSSGPTDLSMKRQLATSSGSSSSSNSRPQLSPTEINAVRQLVAGYRESAAFLLRSADELENLILQQN,soluble
18,GPLGSVGSWECPVCCVSNKAEDSRCVSCTSEKPGLVSASSSNSVPVSLPSGGCLGLDKFKKPEGSWDCEVCLVQNKADSTKCIACESAKPGT,soluble
19,MTKKHREGLSLRAFAKKMRVSPNAVVSRFKTGKFDQALFEDGSVNEALATAIWNENPTKRPAPFLAPDGQPRTKIKQVSTEGANEYEIKLERMQVALESEKIALERLRETTVDREEVKRAAREFGRAHRDAMLNFPHRFGASIAAQVGCDAASLIGAIDYYIRKALLEAVHIPVPFHDPHSPELENLQETNNG,not soluble
